From patent US20220306751A1 (MYTHIC THERAPEUTICS, published 2022)

T1: CD123 protein (R&D Systems Catalog No. 301-R3-025/CF) (Homo sapiens (Human), UniProt P26951 19-305)
T1 construct: Bought protein
T1 sequence: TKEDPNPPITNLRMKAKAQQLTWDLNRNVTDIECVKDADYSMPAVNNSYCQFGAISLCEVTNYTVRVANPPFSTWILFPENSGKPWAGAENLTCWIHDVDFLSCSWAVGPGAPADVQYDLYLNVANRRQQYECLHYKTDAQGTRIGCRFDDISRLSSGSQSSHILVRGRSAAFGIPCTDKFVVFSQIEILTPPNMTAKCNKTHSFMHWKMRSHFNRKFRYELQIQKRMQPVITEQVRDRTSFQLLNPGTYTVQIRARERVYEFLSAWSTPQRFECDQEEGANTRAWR

T2: CD123 Protein, His Tag, Acro Biosciences Cat. No. ILA-H52H6 (Homo sapiens (Human), UniProt P26951 19-305)
T2 construct: Bought protein; not shown: His tag
T2 sequence: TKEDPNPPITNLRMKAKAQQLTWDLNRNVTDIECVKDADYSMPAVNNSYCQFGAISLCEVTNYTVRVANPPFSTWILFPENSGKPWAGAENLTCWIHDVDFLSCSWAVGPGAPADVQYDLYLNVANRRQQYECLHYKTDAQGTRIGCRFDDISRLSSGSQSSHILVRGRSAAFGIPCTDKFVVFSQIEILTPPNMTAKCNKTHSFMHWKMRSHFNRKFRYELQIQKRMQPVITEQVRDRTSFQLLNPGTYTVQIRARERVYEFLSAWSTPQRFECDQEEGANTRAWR

B1: MYT5476 (antibody, V domains shown)
VH: EVQLLESGGGLVQPGGSLRLSCAVSDYSITSGYYWNWIRQAPGKKLEWMGYISYDGSNNYNPSLKNGRITISRDTSKNTFYLQMNSLRAEDTAVYYCARGEHFYFDSWGQGTLVTVSS
VL: EIVLTQSPGTLSLSPGERATLSCKSSQSLFFGSTQKNYLAWYQQKPGQAPRLLIYWASTRESGIPDRFSGSGSGTDFTLTISRLEPEDFAVYYCQQYYNYPWTFGQGTKLEIK
notes: IgG
B2: MYT5495 (antibody, V domains shown)
VH: EVQLLESGGGLVQPGGSLRLSCAVSDYSITSGYYWNWIRQAPGKKLEWMGYISYDGSNNYNPSLKNGRITISRDTSKNTFYLQMNSLRAEDTAVYYCARGEGFYFDSWGQGTLVTVSS
VL: EIVLTQSPGTLSLSPGERATLSCKSSQSLFFGSTQKNYLHWYQQKPGQAPRLLIYWASTRESGIPDRFSGSGSGTDFTLTISRLEPEDFAVYYCQQYYNYPWTFGQGTKLEIK
notes: IgG
B3: MYT1447 (antibody, V domains shown)
VH: QVQLVQSGAEVKKPGASVKMSCKASGYTFTDYYMKWVKQAPGQGLEWIGDIIPSNGATFYNQKFKGKATLTVDRSISTAYMHLNRLRSDDTAVYYCTRSHLLHASWFAYWGQGTLVTVSS
VL: DFVMTQSPDSLAVSLGERATINCKSSQSLLNSGNQKNYLTWYLQKPGQPPKLLIYWASTRESGVPDRFSGSGSGTDFTLTISSLQAEDVAVYYCQNDYSYPYTFGQGTKLEIK
notes: IgG
B4: MYT1450 (antibody, V domains shown)
VH: QVQLVQSGAEVKKPGASVKMSCKASGYTFTDYYMKWVKQAPGQGLEWIGDIIPSNGATFYNQKFKGKATLTVDRSISTAYMHLNRLRSDDTAVYYCTRSHLLRASHFAYWGQGTLVTVSS
VL: DFVMTQSPDSLAVSLGERATINCKSSQSLLNSGNQKNYLTWYLQKPGQPPKLLIYWASTRESGVPDRFSGSGSGTDFTLTISSLQAEDVAVYYCQNDYSYPYTFGQGTKLEIK
notes: IgG
B5: IMGN632 (antibody, V domains shown)
VH: QVQLVQSGAEVKKPGASVKVSCKASGYIFTSSIMHWVRQAPGQGLEWIGYIKPYNDGTKYNEKFKGRATLTSDRSTSTAYMELSSLRSEDTAVYYCAREGGNDYYDTMDYWGQGTLVTVSS
VL: DIQMTQSPSSLSASVGDRVTITCRASQDINSYLSWFQQKPGKAPKTLIYRVNRLVDGVPSRFSGSGSGNDYTLTISSLQPEDFATYYCLQYDAFPYTFGQGTKVEIK
notes: IgG from Expi293 supernatant; also called MYT1251; starting ABPC
B6: MYT2758 (antibody, V domains shown)
VH: QVQLVQSGAEVKKPGASVKVSCKASGYIFTSSIMAWVRQAPGQGLEWIGYIKPYNDGTKYNEKFKGRATLTSDRSTSTAYMELSSLRSEDTAVYYCAREGGNDYYDHMDYWGQGTLVTVSS
VL: DIQMTQSPSSLSASVGDRVTITCRASQDINSYLSWFQQKPGKAPKTLIYRVNRLVDGVPSRFSGSGSGNDYTLTISSLQPEDFATYYCLQYDAFPYTFGQGTKVEIK
notes: IgG

Legend:
[1] = target: T1, CD123 protein (R&D Systems Catalog No. …); assay: BLI, IgG on anti-human Fc sensor, pH 7.4 and pH 5.4
[2] = target: T2, CD123 Protein, His Tag, Acro …; assay: as above
[3] = target: T3, cell surface CD123 on EOL-1 cells (CD123+) (human, UniProt P26951 19-378); assay: flow cytometry on EOL-1 (CD123+) cells, anti-human IgG Alexa Fluor 488; Example 16 calls the fitted value KD
T3 construct: EOL-1 cells, DSMZ ACC 386
Experimental: 100,000 EOL-1 cells (DSMZ ACC 386) were seeded per well in a 96 well deep well plate. IMGN632 and a pH engineered antibody variant were serially diluted at a 1:3 dilution in ice cold FC buffer (phosphate buffered saline (PBS), pH 7.4+2 mM ethylenediaminetetraacetic acid (EDTA)+2% (v/v) HI FBS). The plates were spun at 2,000 RPM for 2 minuets, the supernatant was removed, and 100 μL of diluted antibody was added to each well with final concentration ranging from 60 nM to 1 pM and incubated for 2 hours at 4° C. Post incubation, the cells were spun at 2000 rpm for 2 min and supernatant was discarded. Cells were washed twice with 500 μL of ice-cold FC buffer and resuspended with […]. The cells were then transferred from the deep well plate to 96 well round bottom plate, spun at 2000 rpm for 2 min and incubated with 100 μL of 10 μg/mL Alexa Fluor 488 conjugated goat anti-human IgG secondary antibody (ThermoFisher Scientific, A11013) for 30 min. Post incubation, cells were washed with FC buffer and resuspended in 100 μL of FC buffer to read on a BD Accuri C6 flow cytometer. Binding affinity was measured as a dissociation constant KD by GraphPad Prism assuming Michaelis-Menten binding kinetics.

| Binder | binding result [1] | binding result [2] | IC50 [3] |
| --- | --- | --- | --- |
| B1 | no binding (tested: 50 nM) | – | – |
| B2 | no binding (tested: 50 nM) | – | – |
| B3 | – | no binding (tested: 50 nM) | – |
| B4 | – | no binding (tested: 50 nM) | – |
| B5 | – | – | 0.034 nM |
| B6 | – | – | 0.051 nM |
